Experiments:
human Ror2 [1] = target: T1, human Ror2 (human, UniProt Q01974 34-403, limits assumed); test: ELISA, human Ror2; ratio of signal at pH 6.0 to pH 7.4
T1 construct: also called hROR2; receptor tyrosine kinase-like orphan receptor 2

human Ror2 [2] = target: T1, human Ror2; test: ELISA, human Ror2, pH 6.0
human Ror2 [3] = target: T1, human Ror2; test: ELISA, human Ror2, pH 7.4

T1 sequence (Q01974 34-403 limits assumed): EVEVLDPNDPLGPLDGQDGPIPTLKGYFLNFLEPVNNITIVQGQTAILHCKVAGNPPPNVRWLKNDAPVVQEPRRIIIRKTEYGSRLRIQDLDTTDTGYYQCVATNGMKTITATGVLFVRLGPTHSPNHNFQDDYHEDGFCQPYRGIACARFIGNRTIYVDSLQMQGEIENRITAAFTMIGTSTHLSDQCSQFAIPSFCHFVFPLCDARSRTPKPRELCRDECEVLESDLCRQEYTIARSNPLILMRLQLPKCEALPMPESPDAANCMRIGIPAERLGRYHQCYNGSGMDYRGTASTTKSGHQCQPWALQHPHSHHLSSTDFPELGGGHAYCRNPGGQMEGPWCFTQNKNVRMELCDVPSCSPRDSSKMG

Binder | ratio, pH 6.0/7.4 (human Ror2 [1]) | Affinity ELISA pH 6.0 (human Ror2 [2]) | Affinity ELISA pH 7.4 (human Ror2 [3])
LC-G049P (antibody, V domains shown) VH: EVQLQQSGPELVKPGASVKISCKTSGYTFTEYTMHWMKQSHRKSLEWIGGINTNNGGTGYNQKFKGKATLTVDKSSSTAYMELRSLTSEDSAVYFCARGSLYSYGNSYFDYWGQGTLVTVSS VL: QIVLTQSPAIMSASPGEKVTITCSATSSVSYMHWFQQKPGTSPKLWIYPTSNLASGVPARFSGSGSGTSYSLTISRMEAEDAATYYCQQRSSYPFTFGQGTKVEIK | 2.46 | 0.66 | 0.268
LC-S092D (antibody, V domains shown) VH: EVQLQQSGPELVKPGASVKISCKTSGYTFTEYTMHWMKQSHRKSLEWIGGINTNNGGTGYNQKFKGKATLTVDKSSSTAYMELRSLTSEDSAVYFCARGSLYSYGNSYFDYWGQGTLVTVSS VL: QIVLTQSPAIMSASPGEKVTITCSATSSVSYMHWFQQKPGTSPKLWIYGTSNLASGVPARFSGSGSGTSYSLTISRMEAEDAATYYCQQRSDYPFTFGQGTKVEIK | 1 | 1.13 | 1.12
LC-R090H (antibody, V domains shown) VH: EVQLQQSGPELVKPGASVKISCKTSGYTFTEYTMHWMKQSHRKSLEWIGGINTNNGGTGYNQKFKGKATLTVDKSSSTAYMELRSLTSEDSAVYFCARGSLYSYGNSYFDYWGQGTLVTVSS VL: QIVLTQSPAIMSASPGEKVTITCSATSSVSYMHWFQQKPGTSPKLWIYGTSNLASGVPARFSGSGSGTSYSLTISRMEAEDAATYYCQQHSSYPFTFGQGTKVEIK | 2.19 | 0.56 | 0.256
LC-S092V (antibody, V domains shown) VH: EVQLQQSGPELVKPGASVKISCKTSGYTFTEYTMHWMKQSHRKSLEWIGGINTNNGGTGYNQKFKGKATLTVDKSSSTAYMELRSLTSEDSAVYFCARGSLYSYGNSYFDYWGQGTLVTVSS VL: QIVLTQSPAIMSASPGEKVTITCSATSSVSYMHWFQQKPGTSPKLWIYGTSNLASGVPARFSGSGSGTSYSLTISRMEAEDAATYYCQQRSVYPFTFGQGTKVEIK | 1.04 | 1.23 | 1.18
LC-Q089E (antibody, V domains shown) VH: EVQLQQSGPELVKPGASVKISCKTSGYTFTEYTMHWMKQSHRKSLEWIGGINTNNGGTGYNQKFKGKATLTVDKSSSTAYMELRSLTSEDSAVYFCARGSLYSYGNSYFDYWGQGTLVTVSS VL: QIVLTQSPAIMSASPGEKVTITCSATSSVSYMHWFQQKPGTSPKLWIYGTSNLASGVPARFSGSGSGTSYSLTISRMEAEDAATYYCQERSSYPFTFGQGTKVEIK | 1.74 | 0.438 | 0.251
LC-S030D (antibody, V domains shown) VH: EVQLQQSGPELVKPGASVKISCKTSGYTFTEYTMHWMKQSHRKSLEWIGGINTNNGGTGYNQKFKGKATLTVDKSSSTAYMELRSLTSEDSAVYFCARGSLYSYGNSYFDYWGQGTLVTVSS VL: QIVLTQSPAIMSASPGEKVTITCSATSSVDYMHWFQQKPGTSPKLWIYGTSNLASGVPARFSGSGSGTSYSLTISRMEAEDAATYYCQQRSSYPFTFGQGTKVEIK | 2.91 | 0.733 | 0.252
LC-T096D (antibody, V domains shown) VH: EVQLQQSGPELVKPGASVKISCKTSGYTFTEYTMHWMKQSHRKSLEWIGGINTNNGGTGYNQKFKGKATLTVDKSSSTAYMELRSLTSEDSAVYFCARGSLYSYGNSYFDYWGQGTLVTVSS VL: QIVLTQSPAIMSASPGEKVTITCSATSSVSYMHWFQQKPGTSPKLWIYGTSNLASGVPARFSGSGSGTSYSLTISRMEAEDAATYYCQQRSSYPFDFGQGTKVEIK | 1.59 | 0.755 | 0.474
